Experiments:
ErbB-4 = biological target: T1, ErbB-4 (human (human breast cancer cell line), UniProt Q15303 26-1308, limits assumed); test: co-immunoprecipitation from HRG-stimulated Flag-CHK MCF-7 lysates
T1 construct: also called p180 ErbB-4

[1] = biological target: EGF receptor (EGF-R, ErbB-1) (human (human breast cancer cell lines), UniProt P00533 25-1210); test: co-immunoprecipitation with anti-CHK antibodies from EGF-stimulated Flag-CHK MCF-7 lysates, immunoblot
ErbB-3 = biological target: T2, ErbB-3 (human (human breast cancer cell line), UniProt P21860 20-1342, tyrosine-phosphorylated upon HRG stimulation (sites not given)); test: co-immunoprecipitation with anti-CHK antibody from HRG-stimulated Flag-CHK MCF-7 lysates, anti-ErbB-3 immunoblot
T2 construct: also called p180 ErbB-3
T2 sequence (P21860 20-1342 limits assumed): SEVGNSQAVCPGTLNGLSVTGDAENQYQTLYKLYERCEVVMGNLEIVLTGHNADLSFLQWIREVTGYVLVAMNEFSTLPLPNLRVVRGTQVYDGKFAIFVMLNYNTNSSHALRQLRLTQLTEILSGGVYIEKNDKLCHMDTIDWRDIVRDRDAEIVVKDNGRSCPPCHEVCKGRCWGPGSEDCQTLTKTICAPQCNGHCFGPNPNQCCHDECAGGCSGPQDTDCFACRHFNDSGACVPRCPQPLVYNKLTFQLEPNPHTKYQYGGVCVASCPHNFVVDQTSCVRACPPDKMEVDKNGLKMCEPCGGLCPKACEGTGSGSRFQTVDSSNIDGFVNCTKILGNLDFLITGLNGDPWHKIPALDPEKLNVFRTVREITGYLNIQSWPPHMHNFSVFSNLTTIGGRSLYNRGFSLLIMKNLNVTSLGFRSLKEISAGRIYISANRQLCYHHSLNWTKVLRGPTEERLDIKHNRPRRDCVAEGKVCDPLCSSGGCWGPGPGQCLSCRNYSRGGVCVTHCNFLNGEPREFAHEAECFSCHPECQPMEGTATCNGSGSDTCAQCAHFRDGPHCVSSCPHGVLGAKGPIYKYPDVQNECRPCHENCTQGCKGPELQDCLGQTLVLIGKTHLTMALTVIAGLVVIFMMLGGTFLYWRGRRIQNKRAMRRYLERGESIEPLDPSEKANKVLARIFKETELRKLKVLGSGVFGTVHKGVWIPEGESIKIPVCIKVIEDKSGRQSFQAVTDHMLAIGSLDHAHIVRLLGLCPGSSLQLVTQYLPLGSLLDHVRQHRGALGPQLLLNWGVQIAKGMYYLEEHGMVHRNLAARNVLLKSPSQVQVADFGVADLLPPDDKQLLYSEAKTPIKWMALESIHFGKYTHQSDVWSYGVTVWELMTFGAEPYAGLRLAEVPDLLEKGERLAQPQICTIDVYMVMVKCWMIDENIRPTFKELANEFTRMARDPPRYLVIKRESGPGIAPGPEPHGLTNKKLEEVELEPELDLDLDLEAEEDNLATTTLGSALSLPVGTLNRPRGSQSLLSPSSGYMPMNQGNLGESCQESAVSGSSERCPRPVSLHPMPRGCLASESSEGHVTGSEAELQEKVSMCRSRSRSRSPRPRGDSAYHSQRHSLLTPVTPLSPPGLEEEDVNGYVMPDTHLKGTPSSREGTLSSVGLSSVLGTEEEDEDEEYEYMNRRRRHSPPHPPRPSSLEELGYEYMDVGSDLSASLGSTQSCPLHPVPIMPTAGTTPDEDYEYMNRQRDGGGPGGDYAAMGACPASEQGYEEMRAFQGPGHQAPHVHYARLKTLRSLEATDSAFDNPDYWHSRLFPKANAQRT

Measured: binding result

T1 sequence (Q15303 26-1308 limits assumed): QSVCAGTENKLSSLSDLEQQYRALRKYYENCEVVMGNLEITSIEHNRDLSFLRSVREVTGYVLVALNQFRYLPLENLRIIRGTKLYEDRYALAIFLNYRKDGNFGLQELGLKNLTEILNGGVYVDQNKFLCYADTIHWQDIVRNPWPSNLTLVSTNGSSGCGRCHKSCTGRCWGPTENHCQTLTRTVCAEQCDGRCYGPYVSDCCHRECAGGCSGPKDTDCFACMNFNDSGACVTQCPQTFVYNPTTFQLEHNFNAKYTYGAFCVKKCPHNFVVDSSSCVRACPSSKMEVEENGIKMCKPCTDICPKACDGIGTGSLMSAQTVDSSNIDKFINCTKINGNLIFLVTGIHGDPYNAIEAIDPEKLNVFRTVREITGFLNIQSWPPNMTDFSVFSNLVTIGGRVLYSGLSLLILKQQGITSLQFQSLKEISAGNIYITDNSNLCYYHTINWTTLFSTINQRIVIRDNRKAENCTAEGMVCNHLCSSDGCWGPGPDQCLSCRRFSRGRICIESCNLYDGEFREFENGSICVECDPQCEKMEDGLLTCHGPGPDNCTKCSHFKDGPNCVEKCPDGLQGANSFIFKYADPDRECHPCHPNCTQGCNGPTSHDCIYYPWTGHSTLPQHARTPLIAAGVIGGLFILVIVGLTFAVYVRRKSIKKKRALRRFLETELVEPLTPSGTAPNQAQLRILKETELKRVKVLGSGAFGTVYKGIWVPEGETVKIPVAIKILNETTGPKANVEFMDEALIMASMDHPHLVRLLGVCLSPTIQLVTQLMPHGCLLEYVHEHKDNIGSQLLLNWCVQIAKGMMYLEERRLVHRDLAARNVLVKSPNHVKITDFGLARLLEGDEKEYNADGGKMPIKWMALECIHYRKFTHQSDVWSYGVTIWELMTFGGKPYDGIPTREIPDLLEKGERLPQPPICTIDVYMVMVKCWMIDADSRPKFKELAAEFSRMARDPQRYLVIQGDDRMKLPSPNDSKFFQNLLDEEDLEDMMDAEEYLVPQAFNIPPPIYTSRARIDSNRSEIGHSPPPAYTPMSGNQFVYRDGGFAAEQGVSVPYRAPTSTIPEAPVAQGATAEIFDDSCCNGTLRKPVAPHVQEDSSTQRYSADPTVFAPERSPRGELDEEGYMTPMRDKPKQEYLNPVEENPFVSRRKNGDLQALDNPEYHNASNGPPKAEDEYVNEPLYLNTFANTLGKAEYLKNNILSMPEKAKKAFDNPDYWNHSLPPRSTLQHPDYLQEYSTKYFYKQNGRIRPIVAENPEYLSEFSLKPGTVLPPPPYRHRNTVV

B1: Flag-CHK (Flag epitope-tagged CHK expressed in MCF-7 cells from pCDNA3 neo) (enzyme)
chain: DYKDDDDKMAGRGSLVSWRAFHGCDSAEELPRVSPRFLRAWHPPPVSARMPTRRWAPGTQCITKCEHTRPKPGELAFRKGDVVTILEACENKSWYRVKHHTSGQEGLLAAGALRDGEALSADPKLSLMPWFHGKISGQEAVQQLQPPEDGLFLVRESARHPGDYVLCVSFGRDVIHYRVLHRDGHLTIDEAVFFCNLMDMVEHYSKDKGAICTKLVRPKRKHGTKSAEEELARAGWLLNLQHLTLGAQIGEGEFGAVLQGEYLGQKVAVKNIKCDVTAQAFLDETAVMTKMQHENLVRLLGVILHQGLYIVMEHVSKGNLVNFLRTRGRALVNTAQLLQFSLHVAEGMEYLESKKLVHRDLAARNILVSEDLVAKVSDFGLAKAERKGLDSSRLPVKWTAPEALKHGFTSKSDVWSFGVLLWEVFSYGRAPYPKMSLKEVSEAVEKGYRMEPPEGCPGPVHVLMSSCWEAEPPAGHPSANWPRSWPGSYAVQVPQPPSQGRTPTVHLAPKPGALTPPGGPWPQRTERVESAAWGH
notes: An initiator Met stands before the Flag tag; also called intact CHK
no binding: all assays above

Reference: US20030181404A1 (BETH ISRAEL DEACONESS MEDICAL CENTER, published 2003)
